Laboratory results: the supplement of paper PMC9170038

Tested on: MS2 coat protein
Assay: apparent KD of MS2 coat protein; designed switch direction (-1 OFF switch, 1 ON switch): -1; higher = weaker reporter binding
How it was run: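 Transcription of designed RNA switches on Illumina chips was done by stalled E. coli RNA polymerase. SNAP-549-labelled MS2 coat protein was then titrated in doubling steps from 0.7 or 1.5 nM to 3 µM, with steps of 0.8–1.5 h at the lowest and 10–20 min at the highest concentration. The per-design median over clusters of curve-fitted normalised fluorescence is reported as apparent KD.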

[1] = input ligand: microRNA oligo, concentration not stated
[2] = Eterna round: R95, input ligand: FMN 200 uM
[3] = Eterna round: R95, input ligand: microRNA oligo, concentration not stated
[4] = Eterna round: R95, input ligand: none

Sequence | apparent KD of MS2 coat protein (input ligand: FMN 200 uM) | apparent KD of MS2 coat protein [1] | apparent KD of MS2 coat protein (input ligand: none) | apparent KD of MS2 coat protein [2] | apparent KD of MS2 coat protein [3] | apparent KD of MS2 coat protein [4]
GCACGGAGUGUAGGAUAUCUGUGCGAUUAGCUCAGAGAAGGACAUGAGGAUCACCCAUGUGUGUUCCAAUACUCAAAUCCGUGC [Eli exng1 - 064] (Eterna round: R96, puzzle: Exclusion NG 1) | 710 nM | 55.4 nM | 52.1 nM |  |  | 
GUACAACAUGAGGAUCACCCAUGUGAGGAUAUGCGAAUUUCAUCAAAAGAUGAAAUUUGCAGAAGGCACAGUAC [Omei Ex1 A8] (Eterna round: R97, puzzle: Exclusion 1) | 26.6 nM |  | 32.8 nM |  |  | 
AAAAGCAAGCAAAGAUUCUACAUGAGGAUCACCCAUGUGCUCGUCUUAUAAAGUACUAUCACGAAAGUGAUAGUACA [Sensor 3, v1 - 42] (puzzle: Sensor v3, turn-off variant 1) |  |  |  | 26 nM | 142 nM | 19.7 nM
ACAUUACAUGAGGAUCACCCAUGUGAGGAUAUGGUGCGGUAGUGUCCUGUCGCGUACACCAGAAGGCGCGGGUG [1st #47] (Eterna round: R97, puzzle: Exclusion 1) | 122 nM |  | 258 nM |  |  | 
CGGGCAUGAGGAUAUCGAGGUUAGUACAUGAGGAUCACCCAUGUUAUCCAGGUGUCGGUUCGAGAAGGCAUGGCCG [LRO-Ex5-11] (puzzle: Exclusion 5) |  |  |  | 464 nM | 230 nM | 340 nM
CCGGAAGUACAGGAUAUCGUAACGGAUACGUUACGAGAAGGGUAUACAUGAGGAUCACCCAUGUGUCCUACCGG [Mat - Exclusion 6 - Eli Mod - D95] (puzzle: Exclusion 6) |  |  |  | 27.8 nM | 26 nM | 27.1 nM
UAUAUGCAAGCGAGAUCCCACAUGAGGAUCACCCAUGUAAUAAAUAAGCACAGAAUUACUGUGAAAGCUCGUCUUAU [Winner reversed engineered 37] (Eterna round: R97, puzzle: Sensor, turn-off variant 1) | 92.5 nM |  | 105 nM |  |  | 
CCGUGGUUAGGAUAUUCGAAUGAGCACAUGAGGAUCACCCAUGUCUGAAUUGACAGCCGAGAAGAAGGAACCACUC [Eternabot (L2) Solution 24] (Eterna round: R97, puzzle: Exclusion 5) | 29.5 nM |  | 23.3 nM |  |  | 
CUCUUGUCAGGAUAUUAUGGACGAAGGCAGGGCCGCGUCAGUGAGAAGGGACAUGAGGAUCACCCAUGUAAAAU [Riintesoa] (puzzle: Exclusion 4) |  |  |  |  | 73.9 nM | 
GAAGAGACAGGAUAUACAUGAGGAUCACCCAUGUGAGUAUGUUAGAGGCGGAGGAGAUGUAGAAGGGUCAAAGA [JR_Exclu3_Sub017] (puzzle: Exclusion 3) |  |  |  | 39.9 nM | 19.6 nM | 31.6 nM
UACAUGAGGAUCACCCAUGUUUUGUCGUGUAUGGUAUUUAUCUAGGAUAUCAUUUUAAUUAGUUAUGAGAAGGAGAAUAUUAAU [JMF's solution 87] (Eterna round: R96, puzzle: Exclusion NG 3) | 33.7 nM | 24.4 nM | 32.5 nM |  |  | 
GAUCAUGCAGGAUAUACAUGGAACAUGUAAACAUGAAUUUCACAUGAGGAUCACCCAUGUAGAAGGGCAUGAUC [Omei Ex2 A13] (Eterna round: R97, puzzle: Exclusion 2) | 314 nM |  | 2200 nM |  |  | 
AUAAUUAGAGGAUAUGGUACAUUGCACAUGAGGAUCACCCAUGUAAGGUGACCCAUGUCGCCAGAAGGCUGAUAUG [Eternabot (L2) Solution 46] (Eterna round: R97, puzzle: Exclusion 5) | 3460 nM |  | 460 nM |  |  | 
AAGAAACAUGAGGAUCACCCAUGUGAGGAUAUGUAAAAUAAAAGAAAAGAAAGAAUAAACAGAAGGCACAAAGG [Mat - Mod of Hog D14] (puzzle: Exclusion 1) |  |  |  | 69.9 nM | 64.4 nM | 52.6 nM
AACUUACAUGAGGAUCACCCAUGUCAGGAUAUCGAAAUUGGCCUGCAAUUACAGGCGACGAGAAGGGACGUUUU [EX1 B.24] (Eterna round: R97, puzzle: Exclusion 1) | 29.3 nM |  | 16.9 nM |  |  | 
GAGAAGGUAGGAUAUACGAAUAAAUAGGGUAGUAAUAAUACACAUGAGGAUCACCCAUGUAGAAGGACCAAGAG [Mat - Exclusion 2 - Mod of my Tesla design - D39] (puzzle: Exclusion 2) |  |  |  | 38.1 nM | 22.8 nM | 25 nM
GCCGCUCACGAGGAUAUGGUGGAAAAGCCUUUGCUAGAAGGCGUGACAUGAGGAUCACCCAUGUAGGCACAUGA [Eternabot (L1) Solution 85] (Eterna round: R97, puzzle: Exclusion 6) | 24.9 nM |  | 30.4 nM |  |  | 

Sequence | apparent KD of MS2 coat protein (input ligand: FMN 200 uM) | apparent KD of MS2 coat protein [1] | apparent KD of MS2 coat protein (input ligand: none) | apparent KD of MS2 coat protein [2] | apparent KD of MS2 coat protein [3] | apparent KD of MS2 coat protein [4]
AGGUUGGGCGCAUCUUGCCACAUGAGGAUCACCCAUGUUGUACCAUUAGAAGAGAACAAGCUCUUUGCUCGUCUUAU [Sensor 1 S2] (Eterna round: R97, puzzle: Sensor, turn-off variant 1) | 32 nM |  | 39.5 nM |  |  | 
GGAUCGAGUGUGAGGAUAUGCUGGUCCUUGGAUCAGCAGAAGGCACAUGAGGAUCACCCAUGUGAUACCGAUCC [Eli bmx4 4.67] (Eterna round: R97, puzzle: Brourd's mod of Exclusion 4) | 736 nM |  | 71 nM |  |  | 
AACCAGCGAGGAUAUUGUUGAUAAAACAUGAGGAUCACCCAUGUCACGUGAUCUUCCCAACAAGAAGGUGCACUAA [Xeoratdior] (Eterna round: R97, puzzle: Exclusion 5) | 652 nM |  | 301 nM |  |  | 
AUUGAUAUUGAGGAUAUGCUUUUAUUUGUACUAGCAGAAGGCGAUACAUGAGGAUCACCCAUGUUUAUGGAAGU [JR_E6_Sub088] (puzzle: Exclusion 6) |  |  |  | 50.5 nM | 35.6 nM | 29.4 nM
UCUUAUCUAUAGGAUAUAGGAGCAGAAUUGCGAUUAGAAGGAUGGACAUGAGGAUCACCCAUGUGCAUGGGCUU [EX6 B.6] (Eterna round: R97, puzzle: Exclusion 6) | 17.9 nM |  | 30.6 nM |  |  | 
CGUGUCUUUUACGUGAGUGGUGGGUGCAACAGGUGGGUUACAUGAGGAUCACCCAUGUCCUCACUUGCUCGUCUUUU [Grok-var2-08] (puzzle: Sensor v3, turn-off variant 2) |  |  |  | 76.7 nM | 53.5 nM | 69.8 nM
AGCUAGAUAGGAUAUGCCCGGGAUAACAUGAGGAUCACCCAUGUGACCGAUUCAUGUCCUGCAGAAGGGUUUGGGA [Mod of ViennaUCT 7 - Jieux - Exclusion 5] (Eterna round: R97, puzzle: Exclusion 5) | 15.1 nM |  | 12.7 nM |  |  | 
CAUUAUGUUGAGGAUAUGCGCCGGCUCGCUGACGCAGAAGGCGACACAUGAGGAUCACCCAUGUCAGUUCGCGA [salish99_ex6_r004_420] (Eterna round: R97, puzzle: Exclusion 6) | 15.8 nM |  | 14.5 nM |  |  | 
CUUGUUUAUGUAGGAUAUGCCUGGCGUGCCUUUGCAGAAGGACAUGAGGAUCACCCAUGUAACAUGAGGCUAACCCUUGUCGCC [salish99_ExNG1_r04_118] (Eterna round: R96, puzzle: Exclusion NG 1) | 86.7 nM | 65.7 nM | 96 nM |  |  | 
UUGUUGUAUGUAGGAUAUGCGUAUUAUUAUUAUGCAGAAGGACAUGAGGAUCACCCAUGUAUAUUAUUAUUAUAUGUUAUAUAU [Title] (Eterna round: R96, puzzle: Exclusion NG 1) |  | 17.9 nM |  |  |  | 
GUUAAGGUAGGAUAUACGAUAAUAGAGGGUAGAUAUAUAACACAUGAGGAUCACCCAUGUAGAAGGACCAAUUG [Mat - Exclusion 2 - Mod of my Tesla design - D58] (puzzle: Exclusion 2) |  |  |  | 91.3 nM | 41.2 nM | 36.8 nM
UUCAGGCGAGGAUAUCCAUGAAGUAACAUGAGGAUCACCCAUGUUCGCUGUUACUCCGAAGGAGAAGGUGCUCUGG [Eternabot (L2) Solution 25] (Eterna round: R97, puzzle: Exclusion 5) | 196 nM |  | 100 nM |  |  | 
GUCGUGCGGCUUUGCUGUGCGGGUACAUGAGGAUCACCCAUGUAGGAUAUGGUACGCUUUGCGUGCCAGAAGGGCGUGCGUUGG [salish99_ExNG3_r04_008] (Eterna round: R96, puzzle: Exclusion NG 3) | 38.4 nM | 26.3 nM | 36.6 nM |  |  | 
UUUAGUUCAGGAUAUGUAGAAUUAAACAUGAGGAUCACCCAUGUAGUUCCUGAUCCUGCUACAGAAGGGAACAUUU [Mat - Exclusion 5 - Eli Mod - D13] (Eterna round: R97, puzzle: Exclusion 5) | 24.8 nM |  | 17.2 nM |  |  | 
UAUUCACAUGAGGAUCACCCAUGUCAGGAUAUGCUCGAUAUAUGGAAACAUAUAUCGAGCAGAAGGGACUAGCG [Jieuxxlusion 8 - Jieux - Exclusion 1] (Eterna round: R97, puzzle: Exclusion 1) | 98.7 nM |  | 41.2 nM |  |  | 
AUUCAACAUGAGGAUCACCCAUGUGAGGAUAUGCGAGUGCAGACUUCGGUUUGAUAGAGCAGAAGGCGCAGGUA [EX1 #13] (Eterna round: R97, puzzle: Exclusion 1) | 69.6 nM |  | 30.8 nM |  |  | 
AAACCACAUGAGGAUCACCCAUGUGAGGAUAUGAUACUAUGUACUUCGGUACAUAGUAUCAGAAGGCAUGUGGA [Ex1-3: 88] (puzzle: Exclusion 1) |  |  |  |  | 168 nM | 
